The assay deals with PBMC-flu supernatant. Put plainly: cell-based or functional assay.

B1: ACO-1 (antibody, V domains shown)
VH: QVQLQQPGAELVKPGASVKLSCKASGYTFTNYWMHWVKQRPGQGLEWIGEINPSHGRTIYNENFKSKATLTVDKSSITAFMQLSSLTSEDSAVYFCARGGLGPAWFAYWGQGTLVTVSA
VL: QIVLTQSPAIMSASPGEKVTLTCSAGSSVDSSYLYWYQQKPGSSPKLWIYSTSNLASGVPARFSGSGSGTSYSLTISSMEAEDAASYFCHQWSSYPFTFGSGTKLEIKR
notes: also called ACO-1 monoclonal antibody; hybridoma ATCC PTA-6557
Molecule B1 yielded a neutralization of PBMC-flu, RG bioassay above 50%.

Values taken from US20090214565A1 (BAYLOR RESEARCH INSTITUTE, published 2009).
